How the values were obtained:
Lenti-X 293T cells = assay: YFP fluorescence quenching anion reporter plate reader assay of engineered receptors stimulated with acetylcholine or a non-native ligand; format: cell-based
Method in brief: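 Lenti-X 293T cells carrying a YFP anion reporter were transiently transfected with channel DNA and assayed the next day in HEPES-buffered ECS at pH 7.2. Ligand (acetylcholine or non-native ligand) was added in NaI-substituted ECS. Percent quench was the mean of the last 10 s relative to the 15 s pre-addition baseline.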

rat DRG neurons = assay: Rheobase shift and evoked action potentials in rat DRG neurons (current clamp); format: cell-based
Method: Using whole cell manual patch clamp electrophysiology in HEK293 cells, rat DRG neurons and rat hippocampal neurons, the EC50 of the various engineered receptors disclosed herein to Ach and non-native ligands was measured using the Hill equation with peak current measurements from escalating doses of ligand. The rheobase shift was also measured in rat DRG neurons, which reflects the efficacy of the receptors. To calculate the rheobase, first, the amount of current that can produce an action potential was determined. Then the ligand was added, followed by a step wise increase in the current injected up to 700 pA.
For manual patch clamp experiments, Cells plated on coverslips were visualized at 10× and 40× on an inverted fluorescence microscope (Olympus). Recordings were made with an Axopatch 200B amplifier and Digidata 1550B (Molecular Devices) at RT using 3-6 MOhm glass patch electrodes (Sutter, BF150-86-10). Unless otherwise stated, recordings were made in extracellular solution (ECS) containing: 140 mM sodium chloride, 4 mM potassium chloride, 1 mM magnesium chloride, 2 mM calcium chloride, 10 mM HEPES, and 10 mM D-(+)-glucose (pH=7.3 with sodium hydroxide, osmolarity=305−315 mOsm). An 8-line reservoir (AutoMate Scientific) in combination with an 8-channel zero-dead-volume perfusion pencil (AutoMate Scientific) was used for perfusion. Data was acquired using pClamp software (Molecular Devices). Traces were either analyzed in Clampfit (Molecular Devices) or using custom Python code. Plotting and statistics were performed in GraphPad Prism.
DRG rheobase experiments were performed in current clamp mode using a potassium-based internal solution containing: 100 mM potassium D-gluconate, 28 mM potassium chloride, 1 mM magnesium chloride hexahydrate, 5 mM magnesium ATP, 10 mM HEPES, and 0.5 mM EGTA (pH=7.2 with potassium hydroxide, osmolarity=290-295 mOsm, calculated liquid junction potential=−13.5 mV). To measure DRG input resistance and rheobase, 500 ms current steps (−200 pA to 700 pA) were applied the membrane in the presence and absence of a compound. No holding current was applied to the membrane for cells included in the final datasets. Data were acquired at 10 kHz, with Bessel filter at 2 kHz and series resistance compensation at 100%. Rheobase was defined as the smallest depolarizing current injection required to cause an action potential to fire in the cell. In a subset of cells, the rheobase was ambiguous, since the action potential appeared to be graded in amplitude. In these cases, a […] of the trace clarified the rheobase. Input resistance was measured from the negative current injections, calculated as the difference in membrane potential at steady state divided by the current injection amplitude and then averaged across the four negative current steps for each recording. Resting membrane potential was measured from the first 100 ms of each sweep, averaged for each recording, and corrected for liquid junction potential. One-way ANOVA with multiple comparisons was used to test for significance of difference in rheobase and input resistance between baseline, drug, and wash conditions.

B1: CODA1045: engineered chimeric LGIC receptor, R101W, Y210V in SEQ ID NO: 33 (protein)
chain: MRCSPGGVWLALAASLLHVSLQGEFQRKLYKELVKNYNPLERPVANDSQPLTVYFSLSLLQIMDVDEKNQVLTTNIWLQMSWTDHYLQWNVSEYPGVKTVWFPDGQIWKPDILLYNSADERFDATFHTNVLVNSSGHCQYLPPGIFKSSCPMDLKNFPMDVQTCKLKFGSWSYGGWSLDLQMQEADISGYIPNGEWDLVGIPGKRSERFVECCKEPYPDVTFTVTMRRRMGYYLIQMYIPSLLIVILSWISFWINMDAAPARVGLGITTVLTMTTQSSGSRASLPKVSYVKAIDIWMAVCLLFVFSALLEYAAVNFVSRQHKELLRFRRKRRHHKSPMLNLFQEDEAGEGRFNFSAYGMGPACLQAKDGISVKGANNSNTTNPPPAPSKSPEEMRKLFIQRAKKIDKISRIGFPMAFLIFNMFYWIIYKIVRREDVHNQ
modifications: synthetic sequence of chimeric LGIC
YFP fluorescence quenching using CNL001 (Lenti-X 293T cells; 1 nM CNL001, first column): 0.804%
YFP fluorescence quenching using CNL001 (Lenti-X 293T cells; 1 nM CNL001, second column): 11.275%
YFP fluorescence quenching using TC-5619/Bradanicline (Lenti-X 293T cells; 1 nM brd): −1.431%
YFP fluorescence quenching using TC-5619/Bradanicline (Lenti-X 293T cells; 3 nM brd): −14.993%
YFP fluorescence quenching using Varenicline (Lenti-X 293T cells; 3 nM var, first column): 6.745
YFP fluorescence quenching using Varenicline (Lenti-X 293T cells; 3 nM var, second column): 8.397
YFP fluorescence quenching using CNL001 (Lenti-X 293T cells; 10 nM CNL001, first column): 15.843%
YFP fluorescence quenching using CNL001 (Lenti-X 293T cells; 10 nM CNL001, second column): 16.619%
YFP fluorescence quenching using TC-5619/Bradanicline (Lenti-X 293T cells; 10 nM brd): −5.52%
YFP fluorescence quenching using TC-5619/Bradanicline (Lenti-X 293T cells; 30 nM brd): 15.49%
YFP fluorescence quenching using Varenicline (Lenti-X 293T cells; 30 nM var, first column): 14.1
YFP fluorescence quenching using Varenicline (Lenti-X 293T cells; 30 nM var, second column): 19.095
YFP fluorescence quenching using CNL001 (Lenti-X 293T cells; 50 nM CNL001, first column): 15.205%
YFP fluorescence quenching using CNL001 (Lenti-X 293T cells; 50 nM CNL001, second column): 18.771%
YFP fluorescence quenching using ABT-126 (Lenti-X 293T cells; 50 nM abt): −24.16%
YFP fluorescence quenching using CNL001 (Lenti-X 293T cells; 100 nM CNL001, first column): 9.332%
YFP fluorescence quenching using CNL001 (Lenti-X 293T cells; 100 nM CNL001, second column): 18.218%
YFP fluorescence quenching using ABT-126 (Lenti-X 293T cells; 100 nM abt): −24.7%
YFP fluorescence quenching using TC-5619/Bradanicline (Lenti-X 293T cells; 100 nM brd): 72.105%
YFP fluorescence quenching using ABT-126 (Lenti-X 293T cells; 300 nM abt): −16.09%
YFP fluorescence quenching using TC-5619/Bradanicline (Lenti-X 293T cells; 300 nM brd): 71.411%
YFP fluorescence quenching using Varenicline (Lenti-X 293T cells; 300 nM var, first column): 16.83
YFP fluorescence quenching using Varenicline (Lenti-X 293T cells; 300 nM var, second column): 21.507
YFP fluorescence quenching using Varenicline (Lenti-X 293T cells; 500 nM var, first column): 21.586
YFP fluorescence quenching using Varenicline (Lenti-X 293T cells; 500 nM var, second column): 23.131
YFP fluorescence quenching using CNL001 (Lenti-X 293T cells; 1 uM CNL001, first column): 35.294%
YFP fluorescence quenching using CNL001 (Lenti-X 293T cells; 1 uM CNL001, second column): 36.542%
YFP fluorescence quenching using ABT-126 (Lenti-X 293T cells; 1 uM abt): −11.61%
YFP fluorescence quenching using Varenicline (Lenti-X 293T cells; 1 uM var, first column): 31.591
YFP fluorescence quenching using Varenicline (Lenti-X 293T cells; 1 uM var, second column): 26.479
percent quench of YFP fluorescence, 30 nM TC-6683 (Lenti-X 293T cells; TC-6683 30 nM): 1.735%
percent quench of YFP fluorescence, 300 nM TC-6683 (Lenti-X 293T cells; TC-6683 300 nM): 0.642%
percent quench of YFP fluorescence, 3 uM TC-6683 (Lenti-X 293T cells; TC-6683 3 uM): 2.403%
percent quench of YFP fluorescence, 30 uM TC-6683 (Lenti-X 293T cells; TC-6683 30 uM): 6.006%
percent quench of YFP fluorescence, 100 uM TC-6683 (Lenti-X 293T cells; TC-6683 100 uM): −4.277%
percent quench of YFP fluorescence, 10 uM ach (Lenti-X 293T cells; acetylcholine 10 uM): −2.52%
percent quench of YFP fluorescence, 100 uM ach (Lenti-X 293T cells; acetylcholine 100 uM): −11.98%
percent quench of YFP fluorescence, 300 uM ach (Lenti-X 293T cells; acetylcholine 300 uM): −16.71%
percent quench of YFP fluorescence, 500 uM ach (Lenti-X 293T cells; acetylcholine 500 uM): −12.87%
percent quench of YFP fluorescence, 1 mM ach (Lenti-X 293T cells; acetylcholine 1 mM): −14.41%
percent quench of YFP fluorescence, 3 mM ach (Lenti-X 293T cells; acetylcholine 3 mM): −7.4%
percent quench of YFP fluorescence, 10 mM ach (Lenti-X 293T cells; acetylcholine 10 mM): −1.5%
Rheobase Shift; Rat DRG Neurons, +TC-5619 @ EC90 (rat DRG neurons; +TC-5619 @ EC90): 700 ± 0 pA
Rheobase Shift; Rat DRG Neurons, Baseline (rat DRG neurons; Baseline, no ligand): 141 ± 22 pA

Source: patent publication US20240317834A1, “COMPOSITIONS AND METHODS FOR NEUROLOGICAL DISEASES” (CODA BIOTHERAPEUTICS, INC., priority 2020, published 2024)
